Holding throughout (test): filter
What all share (conditions): J = PPdU at every J; SB18T0.01 + 1 mM DTT, 37 C

Data set [1] has as its target T1, RIG-I K888A (Homo sapiens) (UniProt O95786).
T1 sequence: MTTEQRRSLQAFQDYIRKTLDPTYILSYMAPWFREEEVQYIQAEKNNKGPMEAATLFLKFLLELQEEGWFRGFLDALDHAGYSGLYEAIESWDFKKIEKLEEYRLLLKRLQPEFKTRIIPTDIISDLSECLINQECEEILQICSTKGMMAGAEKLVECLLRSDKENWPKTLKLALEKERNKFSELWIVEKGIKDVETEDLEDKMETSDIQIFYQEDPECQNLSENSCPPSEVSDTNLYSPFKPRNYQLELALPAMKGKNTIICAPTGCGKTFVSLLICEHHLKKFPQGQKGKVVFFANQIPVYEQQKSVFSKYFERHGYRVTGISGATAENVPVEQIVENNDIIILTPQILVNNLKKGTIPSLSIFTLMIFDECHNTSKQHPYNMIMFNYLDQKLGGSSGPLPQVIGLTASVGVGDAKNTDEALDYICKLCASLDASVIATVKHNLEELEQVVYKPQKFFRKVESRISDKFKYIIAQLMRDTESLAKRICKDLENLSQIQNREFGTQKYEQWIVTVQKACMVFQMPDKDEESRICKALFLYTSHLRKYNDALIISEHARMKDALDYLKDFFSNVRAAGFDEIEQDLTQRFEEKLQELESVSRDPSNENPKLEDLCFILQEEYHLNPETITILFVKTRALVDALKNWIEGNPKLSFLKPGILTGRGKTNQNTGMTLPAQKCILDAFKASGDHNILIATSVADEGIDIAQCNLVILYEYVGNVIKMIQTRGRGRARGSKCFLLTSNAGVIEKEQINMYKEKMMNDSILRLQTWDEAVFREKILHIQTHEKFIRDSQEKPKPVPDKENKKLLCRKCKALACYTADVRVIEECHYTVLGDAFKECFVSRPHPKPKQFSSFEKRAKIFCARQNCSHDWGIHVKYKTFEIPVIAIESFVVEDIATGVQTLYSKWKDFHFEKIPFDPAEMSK

Data set [2] concerns the target T2, RIG-I H847A (Homo sapiens) (UniProt O95786).
T2 sequence: T1 sequence with H847A, A888K

Data set [3] deals with T3, RIG-I N668A (Homo sapiens) (UniProt O95786).
T3 sequence: T1 sequence with N668A, A888K

Positions count from the first letter of the chain named.

Regarding “ATCTCTGTGTCATGTGTTTTAATGTCAGTTTAATGATGAGG [14832-55_8]”, the Kd in data set [1] worked out at 530 pM; in data set [2] it was 9900 pM; in data set [3] it was 110 pM.

Source of the values: patent US20220333113.
